Experimental data: paper PMC13076993

What was measured:
[1] = biological target: human PD-1 (programmed cell death 1) on Jurkat cells (human) (UniProt Q15116)
[2] = biological target: human PD-1 (programmed cell death 1) on Jurkat cells (human) (UniProt Q15116); remark: listed apart in the source

Chain of UniProt Q15116 (Q15116 25-288): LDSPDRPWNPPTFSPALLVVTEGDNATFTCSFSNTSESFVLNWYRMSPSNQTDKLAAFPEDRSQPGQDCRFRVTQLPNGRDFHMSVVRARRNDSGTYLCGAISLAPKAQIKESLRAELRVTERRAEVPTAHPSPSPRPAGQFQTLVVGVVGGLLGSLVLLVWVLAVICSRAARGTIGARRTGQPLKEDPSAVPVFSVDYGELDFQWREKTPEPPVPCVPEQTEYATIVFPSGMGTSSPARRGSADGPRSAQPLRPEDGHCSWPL

Substance: human PD-L1 extracellular domain (from E. coli) (from UniProt Q9NZQ7 19-238) (ligand)
- IL-2 secretion of Jurkat cells stimulated with CO-L1 beads (CD3 antibody and PD-L1) in the presence of soluble S-PDL1 at various concentrations [1]: 100 µg/mL
- force at which the bond lifetime peaks [2]: 7 pN
